In data set [1] the target is T1, GST protein (protein of GST moiety alone, from pGEX-3X) (UniProt P08515 1-218 = GST).
T1 construct: Control of the pull down
The experiment in a line: GST pull down of 35S-labelled in vitro translated human AKBP2, SDS-PAGE and autoradiography. The protocol: Using the GST fusion Akt2 protein (to be referred to as GST-Akt2 hereinafter) prepared in the aforementioned (2), the presence or absence of direct interaction between human AKBP2 protein and Akt2 protein was verified by the GST-pull down method (H. Matsushime et al., Jikken Kogaku, Vol. 113, No. 6, p. 528, 1994). Firstly, using 0.5 μg of the pcDNA-human AKBP2 prepared in the aforementioned Example 5 as the template, and using 40 μl of a TNT kit (TNTR Quick Coupled Transcription/Translation System; Promega) and 1.3 MBq of a radioisotope (redivue Pro-mix L-[³⁵S]; Amersham), radioisotope-labeled human AKBP2 protein was prepared by in vitro transcription and translation in accordance with the attached protocols. A 15 μl portion of this human AKBP2 protein preparation solution was mixed with 1 μg of the GST protein or GST-Akt2 purified on glutathione beads in the aforementioned (2) and shaken at 4° C. for 1 hour after adding 0.3 ml of Buffer A (50 mM Tris-HCl (pH 7.5), 10% glycerol, 120 mM NaCl, 1 mM EDTA, 0.1 mM EGTA, 0.5 mM PMSF, 0.5% NP-40). […] After repeating this operation 4 times, proteins in the precipitate were separated by SDS polyacrylamide gel electrophoresis in accordance with a conventionally known method, and the human AKBP2 protein was detected by autoradiography. As a result, a band which is not detected when the GST protein is mixed was detected when GST-Akt2 was mixed.

Data set [2] concerns the target T2, mouse AKBP2 over-expressed in NIH3T3 L1 fat cells from adenovirus vector AKBP2/pAdTrack-CMV.
T2 chain: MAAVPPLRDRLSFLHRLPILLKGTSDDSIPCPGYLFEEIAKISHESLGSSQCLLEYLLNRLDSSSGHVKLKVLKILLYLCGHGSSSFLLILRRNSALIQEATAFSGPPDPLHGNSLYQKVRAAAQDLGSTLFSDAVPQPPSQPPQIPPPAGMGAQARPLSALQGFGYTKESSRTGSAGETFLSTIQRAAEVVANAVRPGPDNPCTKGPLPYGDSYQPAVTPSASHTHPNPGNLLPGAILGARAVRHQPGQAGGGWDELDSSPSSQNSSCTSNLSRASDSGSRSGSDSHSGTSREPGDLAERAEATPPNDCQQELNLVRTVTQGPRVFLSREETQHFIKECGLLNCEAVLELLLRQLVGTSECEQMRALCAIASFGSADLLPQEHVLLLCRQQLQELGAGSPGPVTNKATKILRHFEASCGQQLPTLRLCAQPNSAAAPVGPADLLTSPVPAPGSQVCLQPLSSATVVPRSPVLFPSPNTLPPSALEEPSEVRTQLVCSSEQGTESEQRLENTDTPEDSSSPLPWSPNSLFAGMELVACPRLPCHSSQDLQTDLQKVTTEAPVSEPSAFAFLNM

Data set [3] concerns the target T3, mouse AKBP2 (Akt2 Binding Protein 2) fused to the GAL4 transcriptional activation domain (pACT2 library clone … (mouse, UniProt Q3U3N6 1-573)).
T3 construct: Prey of the yeast two hybrid screen; also called mouse AKBP2 protein; not shown: limits and junction r
T3 sequence: T2 chain
The data set is described as follows: yeast two hybrid, HIS3 (3AT resistance) and lacZ (β-galactosidase) reporters. The method, then: The aforementioned yeast strain MaV203 for two hybrid transformed by pDB-Akt2 was suspended in 400 ml of YPD liquid medium (DIFCO), cultured at 30° C. for about 6 hours until absorbance at a wave length of 590 nanometer became from 0.1 to 0.4, and then made into competent cells by the lithium acetate method, and the final amount was suspended in 1.0 ml of 0.1 M lithium-tris buffer. The cells were transformed with 20 μg of the mouse fat tissue derived cDNA library prepared in the aforementioned (3), and the cells were selected by culturing on a solid synthetic minimal medium (DISCO, 20% agarose) from which tryptophan and leucine as respective selection markers of pDB-Akt2 and the library had been deleted, thereby obtaining a transformant into which both plasmids were introduced. At the same time, in order to select a cell having an activated reporter gene HIS3 which is expressed when a fusion protein of the GAL4 DNA binding domain artificially expressed in the two hybrid system is linked to a fusion protein of the GAL4 transcriptional activation domain, the transformed cells were cultured at 30° C. for 5 days on the solid minimal medium (20% agarose) from which histidine was removed together with tryptophan and leucine and to which 20 mM of 3AT (3-amino-1,2,4-triazole; Sigma) as an inhibitor of the enzyme encoded by HIS3 was added. […]

Changes are numbered by the printed parent chain.

T1 sequence (P08515 whole entry): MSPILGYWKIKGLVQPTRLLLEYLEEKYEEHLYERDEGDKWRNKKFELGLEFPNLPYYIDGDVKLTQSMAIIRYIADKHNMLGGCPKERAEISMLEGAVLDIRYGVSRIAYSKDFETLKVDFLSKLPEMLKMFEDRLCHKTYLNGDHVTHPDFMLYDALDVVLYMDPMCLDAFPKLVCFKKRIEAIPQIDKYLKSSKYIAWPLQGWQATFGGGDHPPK

B1: human AKBP2-V5-His 6 fusion protein (in vitro transcribed and translated from pcDNA-human AKBP2, 35S-labelled) (other, not shown: small tags and cut ends)
chain: MAAAPPLRDRLSFLHRLPILLKGTSDDDVPCPGYLFEEIAKISHESPGSSQCLLEYLLSRLHSSSGHGKLKVLKILLYLCSHGSSFFLLILKRNSAFIQEAAAFAGPPDPLHGNSLYQKVRAAAQDLGSTLFSDTVLPLAPSQPLGTPPATGMGSQARPHSTLQGFGYSKEHGRTGSAGEAFLSTIQKAAEVVASAMRPGPESPSTRRLLPRGDTYQPAMMPSASHGPPTLGNLLPGAIPGPRAVRHQPGQAGGGWDELDSGPSSQNSSQNSDLSRVSDSGSHSGSDSHSGASREPGDLAERVEVVALSDCQQELSLVRTVTRGPRAFLSREEAQHFIKACGLLNCEAVLQLLTCHLRGTSECTQLRALCAIASLGSSDLLPQEHILLRTRPWLQELSMGSPGPVTNKATKILRHFEASCGQLSPARGTSAEPGPTAALPGPSDLLTDAVPLPGSQVFLQPLSSTPVSSRSPAPSSGMPSSPVPTPPPDASPIPAPGDPSEAEARLAESRRWRPERIPGGTDSPKRGPSSCAWSRDSLFAGMELVACPRLVGAGAAAGESCPDAPRAPQTSSQRTAAKEPPGSEPSAFAFLNA
modifications: radioisotope-labelled (redivue Pro-mix L-[35S])
notes: also called human AKBP2 protein
For B1, in data set [1], the binding result is “no binding (tested: 1 µg of the GST protein)”.

B2: Akt2 of NIH3T3 L1 fat cells (endogenous, immunoprecipitated with anti-Akt2 antibody) (protein)
chain: MNEVSVIKEGWLHKRGEYIKTWRPRYFLLKSDGSFIGYKERPEAPDQTLPPLNNFSVAECQLMKTERPRPNTFVIRCLQWTTVIERTFHVDSPDEREEWMRAIQMVANSLKQRGPGEDAMDYKCGSPSDSSTSEMMEVAVNKARAKVTMNDFDYLKLLGKGTFGKVILVREKATGRYYAMKILRKEVIIAKDEVAHTVTESRVLQNTRHPFLTALKYAFQTHDRLCFVMEYANGGELFFHLSRERVFTEDRARFYGAEIVSALEYLHSRDVVYRDIKLENLMLDKDGHIKITDFGLCKEGISDGATMKTFCGTPEYLAPEVLEDNDYGRAVDWWGLGVVMYEMMCGRLPFYNQDHERLFELILMEEIRFPRTLGPEAKSLLAGLLKKDPKQRLGGGPSDAKEVMEHRFFLSINWQDVVQKKLLPPFKPQVTSEVDTRYFDDEFTAQSITITPPDRYDSLDPLELDQRTHFPQFSYSASIRE
On to B2, for which, in data set [2], the “phosphorylation of the 473rd serine of immunoprecipitated Akt2, western blotting with anti-phosphorylated serine473 antibody, 30 minutes of insulin stimulation” value was “degree of the phosphorylation acceleration was weakened in the cells infected with the AKBP2 virus than in the control virus-infected cells” and the “phosphorylation of the 473rd serine of immunoprecipitated Akt2, western blotting with anti-phosphorylated serine473 antibody, no stimulation” value was “the phosphorylated state at the time of no stimulation was reduced in the cells infected with the AKBP2 virus in comparison with the control virus-infected cells”.

B3: human Akt2 fused to the GAL4 DNA binding region (expressed from pDB-Akt2 in yeast MaV203) (other, UniProt P31751 1-481, looked up)
chain: B2 chain with G114A, A119P, S133T, M135E, N141S, D250E, G374S, D460G, P461L
notes: mature; Bait of the yeast two hybrid screen; also called Akt2 (PKBβ); not shown: limits and junction residues not pri
Consider B3, for which the binding result in data set [3] was “binds”.

For the origin of these results see patent publication US20060211041A1 (Astellas, published 2006).
